Measured values: the RNAGym collection of RNA variant scans (doi:10.1021/acssynbio.7b00057)

B1: Pistol ribozyme (parent)
chain: GGGUCGUUGUUCCAUAAUCGCGUGGAUAUGGCACGCAAGUUUCUACCGGGCACCGUAAAUGUCCGACUGGAGCCGUUCGGGCGGCUAUAAACAGACCUCAGGCCCGAAGCGUGGCGGCACCUGCCGCCGGUGGUAAAAAAGAUCGGAAGAGCACACGUCU

Variants of: B1
Test: aptazyme ON/OFF ratio, guanine; higher = stronger switching; co-transcriptional cleavage with and without guanine

Row | Variant | aptazyme ON/OFF ratio
1 | U7G U10G U11G C13G | 1.18
2 | G9C U10A C13U | 1.3
3 | U7G U8G G9C U10C C12G C13A | 1.22
4 | U7A U8C G9A U10A U11G C12U C13A | 1.2
5 | U8G G9U U11A | 1.73
6 | U7G G9C U10G C12U C13A | 1.24
7 | U8A G9C U10G U11A C12A | 1.31
8 | U7G U8A G9C U10C U11G C12G C13U | 1.02
9 | U7C U8C G9U U10C C12U | 1.32
10 | U7A U8G G9U U10G U11C C12U C13U | 1.05
11 | U8G G9A U10C U11G C12A C13A | 1.18
12 | U7G U8A G9U U10G U11C C13A | 1.06
13 | U7A U8A G9U U10G U11C C13G | 1.09
14 | G9C U10C U11G C12U C13G | 1.05
15 | U7C U8G G9A U10A U11C C13G | 1.02
16 | U7A U8A G9A U11A C12A | 1.26
17 | U7C U8A G9A U10C U11G C12G C13A | 1.24
18 | U7G U8C U10A C12A | 1.21
19 | U7C U8A G9A U11C C12U | 1.13
20 | U7G U8C G9U U10G C12U | 1.25
21 | U7A U8A G9A U10G U11C C12U C13U | 1.23
22 | G9C U10A U11G C13U | 1.35
23 | U8C U10C C12U C13A | 1.21
24 | U7G U8G G9A U10C U11C C13A | 0.99

Row | Variant | aptazyme ON/OFF ratio
25 | U7G U8C U10G C12G C13A | 1.12
26 | U7A G9C U11G C12A | 1.19
27 | U7A U8G G9A U10G U11A C12G | 1.28
28 | U7C U8G G9U U10C C12A | 1.68
29 | U7C U8C U10C U11G C13U | 1.34
30 | U7C U8C G9C U10C U11G | 1.3
31 | G9A U10C C13U | 1.23
32 | U7C U8A G9U U10C C12U C13U | 1.13
33 | U7G G9C U11A C12U C13G | 1.33
34 | U7A U8G G9U U10C U11A C12A C13G | 1.37
35 | U8G G9A U10A C12A C13U | 1.26
36 | U7A U8A G9A U11G C12G C13U | 1.32
37 | U7A U8C U10G U11A C13U | 1.09
38 | U7A U8C U10G C12A C13G | 1.05
39 | U8A G9A U10A U11C C13U | 1.05
40 | U7A U8G G9A U10C U11A C12G C13G | 1.13
41 | U7G G9C U10G U11A C12G C13G | 1.18
42 | U7A U8G G9A U10C U11G C12U C13U | 1.23
43 | U7G U8A G9A U10A U11G C12A | 1.06
44 | U7G U8C G9C U10G U11C C12U C13U | 1.4
45 | U7C U8C G9U C13U | 1.23
46 | U7A U10A U11G C12G C13G | 1.11
47 | U7A U8A G9U U10A U11G C13U | 1.19
48 | U7C U11A | 1.38

Row | Variant | aptazyme ON/OFF ratio
49 | U8A U10A C12G C13G | 1.19
50 | U7C U8G C12G C13U | 1.17
51 | U10A C13U | 1.08
52 | U7G U8C U10A U11C C12G C13U | 1.16
53 | U7G U8G G9C U10C U11G C12U C13A | 1.25
54 | U7G U8C G9C U10C U11C C12A C13A | 1.05
55 | U7C U8C G9C C12U C13A | 1.16
56 | U8C G9C U10C U11G C12A C13U | 1.15
57 | U10A U11C C13G | 1.04
58 | U7A U8C G9C | 1.08
59 | U7G U8C G9U U10A U11A C12A C13G | 1.11
60 | U7C U10A U11A C12U C13A | 1.28
61 | U7C U8C U10G U11A C12A C13U | 1.25
62 | U7A U10G U11G C12A | 1.29
63 | U7A U8A U11C C12G C13G | 1.24
64 | U7G G9U U10C U11A C12U | 1.8
65 | U7A U11A C12A C13A | 1.3
66 | U7C U8C U10G U11C C12A C13G | 1.11
67 | U7G U8C G9U U10G U11G C12U C13A | 1.17
68 | U10G U11A C13G | 1.12
69 | U7C U8G G9A U11C C12U | 1.11
70 | U7C G9U U10G U11C C13U | 1.07
71 | G9U U10C C12U C13G | 1.34
72 | U7G U8A G9U U10C U11A C12G C13A | 1.1

Row | Variant | aptazyme ON/OFF ratio
73 | U7A U8C G9A U10C U11C C12U C13U | 1.04
74 | U7G U8G G9A U10A U11G C12G | 1.43
75 | U7G U8A G9U U11A C13G | 1.02
76 | U7G U8G G9C U10A U11C C12A | 1.06
77 | U7G U8C G9A C13A | 1.09
78 | U8G G9A U11A C13G | 1.07
79 | U8C U10C U11C C12U | 1.44
80 | U7C U8A U10G U11A C12U C13G | 1.24
81 | U8A G9U U10G U11G C13U | 1.03
82 | U7C U8A G9A U10G U11C C12G C13G | 1.21
83 | U8A U10A U11A C12U | 1.09
84 | U7C G9A C12U C13G | 1.18
85 | U7A G9A U11G C12A | 1.18
86 | U7C U8C U10C U11G C12U C13G | 1.23
87 | U7A G9U C13U | 1.35
88 | U7A U8C G9A U11G C12G C13A | 1.19
89 | U7G U8G G9U U10A U11C | 1.09
90 | U11A C13U | 1.29
91 | U8A U10A U11A C12U C13G | 1.09
92 | U7A U8C G9A U10G U11A C12A C13G | 1.11
93 | U8A U10G U11A C12A | 1.06
94 | U7A U8A G9A U10A U11G C12G | 1.16
95 | U7G U10G U11C C12G C13U | 1.35
96 | U8C G9A U10C U11A C13U | 1.3

Row | Variant | aptazyme ON/OFF ratio
97 | U7A G9C U10C C12U C13U | 1.06
98 | U7G U10C U11C C12U C13G | 1.09
99 | U7A U8A G9C U10A U11A C12U C13U | 1.13
100 | U7A G9U U11A C12U | 1.34
101 | U7C U10C U11A C13A | 1.14
102 | U7C G9A U10A U11C C12A | 1.13
103 | U7C U8A G9U U11C C12A C13U | 1.2
104 | U7C U8C U10C U11C C13G | 1.28
105 | U7G U8C G9C U11C C12U C13G | 1.1
106 | U7C U8G G9A U10A C12A C13A | 1.17
107 | U10C C13U | 1.08
108 | U7G G9U U10G C12G C13A | 1.15
109 | U7A U8G G9C U10A U11A | 1.89
110 | U7G U8C G9A U10A U11C C12U C13G | 1.13
111 | U7C G9U U10C U11C C12U C13U | 1.05
112 | U7C U10A U11G C12G C13U | 1.12
113 | U7G U8G G9C U10A U11G C12A C13G | 1.12
114 | U7G U8G G9A U10C U11G C12A C13U | 1.19
115 | U7G U8A G9A U10A U11C C12A C13U | 1.14
116 | U7A U8C G9U U10C C12G C13G | 1.33
117 | U8G G9C U10A U11A | 1.18
118 | U7C U8C G9C U10G U11A C12G C13G | 1.11
119 | U7A U8C G9U U11G C12A C13A | 1.22
120 | U7A U8C U11G C12A C13G | 1.12

Row | Variant | aptazyme ON/OFF ratio
121 | U8A G9A U10C U11C C12A | 1.08
122 | U7A G9U U10A C12G C13U | 1.11
123 | U8A G9A U10A U11C C13G | 1.04
124 | U7G U8C U10C U11C C12G C13A | 1.16
125 | U7C U8C G9U U10A U11C C13A | 1.15
126 | U7C U8C G9U U10C C12A C13G | 1.09
127 | U7G U8A U11G C12A C13U | 1.34
128 | U8G U10C C12A C13A | 1.09
129 | U8C U10A U11A C12G | 1.28
130 | U7G U8C G9U U11C C12A C13U | 1.23
131 | U7C G9C U10C U11G C12U C13A | 1.08
132 | G9U C12G C13A | 1.52
133 | U7G U8C U10G U11G C12G C13A | 1.18
134 | U8C G9A U10A C13G | 1.05
135 | U7C U8A G9U U10G U11G C13A | 1.13
136 | U8A U11A C12A | 1.07
137 | U7G U8A G9U U11C C12G C13G | 1.04
138 | U7C U8C U11C C12G C13U | 1.33
139 | U8C G9U U10A C12G C13A | 1.27
140 | U7G U8G U10C U11C C13U | 1.12
141 | U7G U8C G9A U10A U11A C12G C13G | 1.13
142 | U7C U8A G9C U10G U11A C13U | 1.04
143 | U7G U8A G9C U10C U11G C12A C13A | 1.02
144 | U7G U8C G9A U10G U11A C12G C13G | 1.24

Row | Variant | aptazyme ON/OFF ratio
145 | U7A U11G C12G C13G | 1.42
146 | U7C U8A G9A U10C U11G C12A C13G | 1.16
147 | U7A U8C C12U C13G | 1.27
148 | U7G U8C G9C U11A C12A C13G | 1.14
149 | U7A U8A G9U U10G U11G C13G | 1.3
150 | G9U U10G U11A C12A | 1.63
151 | U7G U10G U11G C12G C13G | 1.11
152 | U7A U8A G9A U10A U11A C13G | 1.17
153 | U7G U8G G9A U10A U11G C12U C13G | 1.12
154 | U7C U8G G9U C12G | 1.78
155 | G9C U10C C12U C13G | 1.06
156 | U8C G9A U10C C12G | 1.24
157 | U7G U8A G9U U10G C13A | 1.35
158 | U7A U8G G9A U10C | 2.9
159 | U8G G9A U10A U11C C12G C13A | 1.24
160 | U7A G9A U10G U11G C12A C13U | 1.33
161 | U7A G9U U11G C12G | 1.15
162 | U7G U8G G9C U11C C12G | 3
163 | U7G G9A U10A U11G C12G C13U | 1.22
164 | U7A U8A G9C U10G U11A C12G C13A | 1.26
165 | U8G G9C C12G | 1.05
166 | U7A U8C U10G C13U | 1.31
167 | U7G U8A U10A U11C C12U C13G | 1.23
